Reference: patent US20210371518A1 (University of Texas, published 2021)
Several values for one entry are separate records, joined by “and”; a condition that tells them apart may be missing. Equal entries are not always repeated.

Tests used:
[1] = biological target: T1, human LILRB4 extracellular domain (ECD) recombinant protein (human, UniProt Q8NHJ6 22-259); test: ELISA
T1 construct: extracellular domain; also called LILRB4 ECD; LILRB4-ECD

[2] = biological target: T1, human LILRB4 extracellular domain (ECD) …; test: Octet
[3] = biological target: LILRB1 (human (not printed on the sheet), UniProt Q8NHL6); test: LILR reporter cells on coated antibody, GFP positive (%)
LILRB1, sequence (Q8NHL6 24-461 limits assumed): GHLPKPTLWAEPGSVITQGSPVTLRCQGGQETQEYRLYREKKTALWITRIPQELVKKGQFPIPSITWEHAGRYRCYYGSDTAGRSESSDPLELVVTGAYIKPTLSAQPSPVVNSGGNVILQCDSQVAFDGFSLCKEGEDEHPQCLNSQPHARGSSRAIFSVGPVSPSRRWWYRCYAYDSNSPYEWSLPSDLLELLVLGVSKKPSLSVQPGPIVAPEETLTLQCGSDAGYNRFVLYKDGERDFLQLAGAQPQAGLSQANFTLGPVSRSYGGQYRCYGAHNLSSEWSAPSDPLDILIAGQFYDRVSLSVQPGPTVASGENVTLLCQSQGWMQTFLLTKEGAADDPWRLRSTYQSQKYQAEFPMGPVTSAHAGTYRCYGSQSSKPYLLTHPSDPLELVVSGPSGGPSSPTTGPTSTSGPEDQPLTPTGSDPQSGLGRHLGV
Protocol: (§1) FIGS. 41A-41M illustrate specific binding of h193 antibodies to LILRB4 protein. FIGS. 41A-41L illustrate the specificity of h193 antibodies determined by LILR reporter assays, in which LILR reporter cells are added to the plates coated with h193 antibodies. The binding of h193 antibodies to the ECD of the LILR member on the surface of the reporter cells induced GFP signal. FIG. 41M illustrates the specificity of an exemplary h193 antibody determined by ELISA. LILRA and LILRB recombinant proteins were coated on high absorption 96-well plates. Serial diluted (5-fold) mAb h193 were added to the coated/blocked plates and detected using goat anti-human IgG F(ab)2 conjugated HRP as secondary antibody.

[4] = biological target: LILRB2 (human (not printed on the sheet), UniProt Q8N423); test: as above
LILRB2, sequence (Q8N423 22-460 limits assumed): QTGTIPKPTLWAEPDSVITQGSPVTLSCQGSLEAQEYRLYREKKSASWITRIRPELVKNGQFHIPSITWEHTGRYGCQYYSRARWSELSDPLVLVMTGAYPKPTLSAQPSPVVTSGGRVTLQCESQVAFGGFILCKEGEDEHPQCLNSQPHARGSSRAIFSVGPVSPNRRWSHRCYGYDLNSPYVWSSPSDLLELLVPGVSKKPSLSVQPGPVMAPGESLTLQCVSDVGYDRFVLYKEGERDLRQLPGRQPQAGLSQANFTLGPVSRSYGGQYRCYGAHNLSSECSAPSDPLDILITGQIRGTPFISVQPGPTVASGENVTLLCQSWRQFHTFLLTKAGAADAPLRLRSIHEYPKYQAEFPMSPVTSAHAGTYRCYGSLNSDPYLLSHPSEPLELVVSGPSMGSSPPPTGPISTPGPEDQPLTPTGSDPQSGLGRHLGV
Protocol: as §1

[5] = biological target: LILRB3 (human (not printed on the sheet), UniProt O75022); test: as above
LILRB3, sequence (O75022 24-443 limits assumed): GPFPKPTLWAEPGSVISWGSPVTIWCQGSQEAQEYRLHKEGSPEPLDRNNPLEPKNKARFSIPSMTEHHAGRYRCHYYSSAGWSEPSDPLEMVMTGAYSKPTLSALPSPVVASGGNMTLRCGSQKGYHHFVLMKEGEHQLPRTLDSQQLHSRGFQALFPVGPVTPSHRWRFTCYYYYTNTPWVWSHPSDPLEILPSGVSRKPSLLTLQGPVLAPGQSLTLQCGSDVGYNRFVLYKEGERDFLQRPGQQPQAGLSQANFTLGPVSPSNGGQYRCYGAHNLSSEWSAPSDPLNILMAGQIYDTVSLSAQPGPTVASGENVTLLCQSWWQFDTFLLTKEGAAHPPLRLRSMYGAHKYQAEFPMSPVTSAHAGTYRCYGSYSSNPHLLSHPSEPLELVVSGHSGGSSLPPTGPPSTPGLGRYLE
Protocol: as §1

[6] = biological target: LILRB5 (human (not printed on the sheet), UniProt O75023); test: as above
LILRB5, sequence (O75023 24-458 limits assumed): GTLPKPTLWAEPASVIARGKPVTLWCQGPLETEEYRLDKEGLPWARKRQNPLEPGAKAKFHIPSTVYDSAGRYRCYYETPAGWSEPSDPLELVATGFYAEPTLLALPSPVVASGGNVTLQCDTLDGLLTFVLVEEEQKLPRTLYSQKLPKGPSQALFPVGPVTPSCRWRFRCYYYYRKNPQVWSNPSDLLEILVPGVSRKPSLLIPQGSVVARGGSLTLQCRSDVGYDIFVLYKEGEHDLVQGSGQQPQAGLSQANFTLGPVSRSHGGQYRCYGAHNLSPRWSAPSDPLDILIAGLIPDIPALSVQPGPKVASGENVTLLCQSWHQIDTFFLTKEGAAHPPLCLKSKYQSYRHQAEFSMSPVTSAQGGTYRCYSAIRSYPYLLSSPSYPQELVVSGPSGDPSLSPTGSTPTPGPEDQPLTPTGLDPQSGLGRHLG
Protocol: as §1

[7] = biological target: LILRA1 (human (not printed on the sheet), UniProt O75019); test: as above
LILRA1, sequence (O75019 17-461 limits assumed): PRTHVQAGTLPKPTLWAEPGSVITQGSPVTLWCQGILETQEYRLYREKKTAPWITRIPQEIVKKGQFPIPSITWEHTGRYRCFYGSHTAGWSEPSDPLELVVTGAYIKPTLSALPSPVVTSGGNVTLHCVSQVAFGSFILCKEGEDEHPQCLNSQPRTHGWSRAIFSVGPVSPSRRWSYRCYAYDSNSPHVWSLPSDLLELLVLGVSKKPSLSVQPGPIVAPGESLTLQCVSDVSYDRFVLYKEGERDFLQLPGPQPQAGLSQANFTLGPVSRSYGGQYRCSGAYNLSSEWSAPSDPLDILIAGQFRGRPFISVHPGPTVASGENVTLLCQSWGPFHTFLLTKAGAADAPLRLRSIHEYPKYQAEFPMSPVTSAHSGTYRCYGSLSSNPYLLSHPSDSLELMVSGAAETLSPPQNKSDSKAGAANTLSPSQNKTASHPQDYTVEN
Protocol: as §1

[8] = biological target: LILRA2 (human (not printed on the sheet), UniProt Q8N149); test: as above
LILRA2, sequence (Q8N149 24-449 limits assumed): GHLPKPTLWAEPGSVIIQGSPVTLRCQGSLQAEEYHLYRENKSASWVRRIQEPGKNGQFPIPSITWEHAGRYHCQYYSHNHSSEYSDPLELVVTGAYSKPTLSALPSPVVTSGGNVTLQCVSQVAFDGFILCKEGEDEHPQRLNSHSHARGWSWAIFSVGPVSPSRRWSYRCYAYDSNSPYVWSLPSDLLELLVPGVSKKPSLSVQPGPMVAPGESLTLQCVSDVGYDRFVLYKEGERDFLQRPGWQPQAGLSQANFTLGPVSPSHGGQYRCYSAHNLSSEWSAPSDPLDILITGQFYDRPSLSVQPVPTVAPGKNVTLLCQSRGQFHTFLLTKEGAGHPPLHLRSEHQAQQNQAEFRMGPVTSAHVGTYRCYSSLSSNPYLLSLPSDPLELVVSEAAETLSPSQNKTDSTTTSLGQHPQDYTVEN
Protocol: as §1

[9] = biological target: LILRA3 (human (not printed on the sheet), UniProt Q8N6C8); test: as above
LILRA3, sequence (Q8N6C8 24-439 limits assumed): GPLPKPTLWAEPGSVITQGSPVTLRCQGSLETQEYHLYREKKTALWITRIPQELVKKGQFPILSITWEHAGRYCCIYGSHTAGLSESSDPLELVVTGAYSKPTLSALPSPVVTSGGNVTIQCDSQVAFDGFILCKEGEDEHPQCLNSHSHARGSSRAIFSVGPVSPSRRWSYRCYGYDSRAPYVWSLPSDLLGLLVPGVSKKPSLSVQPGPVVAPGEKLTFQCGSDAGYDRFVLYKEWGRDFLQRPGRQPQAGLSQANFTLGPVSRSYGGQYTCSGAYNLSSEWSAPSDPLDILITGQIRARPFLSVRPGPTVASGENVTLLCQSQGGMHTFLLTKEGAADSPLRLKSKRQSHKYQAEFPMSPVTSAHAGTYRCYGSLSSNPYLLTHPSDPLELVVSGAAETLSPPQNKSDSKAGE
Protocol: as §1

[10] = biological target: LILRA4 (human (not printed on the sheet), UniProt P59901); test: as above
LILRA4, sequence (P59901 24-446 limits assumed): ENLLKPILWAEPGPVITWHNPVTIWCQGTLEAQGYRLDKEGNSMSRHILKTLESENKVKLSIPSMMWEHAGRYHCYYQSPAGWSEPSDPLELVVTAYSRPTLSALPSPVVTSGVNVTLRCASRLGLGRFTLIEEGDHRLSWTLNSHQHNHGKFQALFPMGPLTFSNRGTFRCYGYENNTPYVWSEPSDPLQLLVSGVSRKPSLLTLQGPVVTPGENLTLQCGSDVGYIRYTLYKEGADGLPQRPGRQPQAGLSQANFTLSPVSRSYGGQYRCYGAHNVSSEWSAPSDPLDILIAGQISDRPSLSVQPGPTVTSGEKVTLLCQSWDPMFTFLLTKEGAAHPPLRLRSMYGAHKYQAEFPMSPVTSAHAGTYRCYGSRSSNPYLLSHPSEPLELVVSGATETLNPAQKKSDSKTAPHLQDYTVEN
Protocol: as §1

[11] = biological target: LILRA5 (human (not printed on the sheet), UniProt A6NI73); test: as above
LILRA5, sequence (A6NI73 42-268 limits assumed): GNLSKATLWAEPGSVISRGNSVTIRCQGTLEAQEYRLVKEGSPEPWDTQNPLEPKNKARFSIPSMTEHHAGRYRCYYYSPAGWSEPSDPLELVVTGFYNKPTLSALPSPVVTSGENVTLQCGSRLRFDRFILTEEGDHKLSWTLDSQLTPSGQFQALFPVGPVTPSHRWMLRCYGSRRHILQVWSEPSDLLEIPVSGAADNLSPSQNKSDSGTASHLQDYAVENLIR
Protocol: as §1

[12] = biological target: LILRA6 (human (not printed on the sheet), UniProt Q6PI73); test: as above
LILRA6, sequence (Q6PI73 24-447 limits assumed): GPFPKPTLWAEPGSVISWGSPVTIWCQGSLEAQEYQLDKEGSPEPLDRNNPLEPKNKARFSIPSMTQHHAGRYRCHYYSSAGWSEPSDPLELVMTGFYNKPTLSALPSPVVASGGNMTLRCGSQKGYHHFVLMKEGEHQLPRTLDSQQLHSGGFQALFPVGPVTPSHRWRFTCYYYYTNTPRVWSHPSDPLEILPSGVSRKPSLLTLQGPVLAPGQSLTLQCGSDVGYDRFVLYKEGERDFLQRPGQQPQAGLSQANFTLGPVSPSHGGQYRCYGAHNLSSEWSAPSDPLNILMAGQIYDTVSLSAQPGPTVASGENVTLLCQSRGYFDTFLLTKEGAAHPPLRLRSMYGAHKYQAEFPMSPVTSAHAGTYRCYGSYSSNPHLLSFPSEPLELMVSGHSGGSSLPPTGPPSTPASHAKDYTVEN
Protocol: as §1

EC50 [1]	Kd [2]	koff [2]	kon [2]	binding result [3]	binding result [4]	binding result [5]	binding result [6]	binding result [7]	binding result [8]	binding result [9]	binding result [10]	binding result [11]	binding result [12]	Binder
0.294 µg/mL and 1.96 nM	2.03 nM	0.000294 s⁻¹	145000 M⁻¹ s⁻¹	no binding	no binding	no binding	no binding	no binding	no binding	no binding	no binding	no binding	no binding	h193 antibody No. 19 (h193-H3 / h193-K1) (antibody, V domains shown) VH: EVQLVESGGGLVQPGGSLRLSCAASGFSLSSSYWISWVRQAPGKGLEWIGSIDSGSVGITYYATWAKGRFTISRDNSKNTLYLQMNSLRAEDTAVYYCARHGDNWALDLWGQGTLVTVSS VL: DIQMTQSPSTLSASVGDRVTITCQASQSINSWLAWYQQKPGKAPKLLIYKASTLASGVPSRFSGSGSGTEFTLTISSLQPDDFATYYCQHGYIRGDLDNVFGGGTKVEIK
0.314 µg/mL and 2.09 nM	2.61 nM	0.000376 s⁻¹	144000 M⁻¹ s⁻¹	no binding	no binding	no binding	no binding	no binding	no binding	no binding	no binding	no binding	no binding	h193 antibody No. 31 (h193-H6 / h193-K1) (antibody, V domains shown) VH: EVQLVESGGGLVQPGGSLRLSCAASGFSLSSSYWISWVRQAPGKGLEWIGSIDSGSVGITYYATSAKGRFTISRDNSKNTLYLQMNSLRAEDTAVYYCARHGDNWALDLWGQGTLVTVSS VL: DIQMTQSPSTLSASVGDRVTITCQASQSINSWLAWYQQKPGKAPKLLIYKASTLASGVPSRFSGSGSGTEFTLTISSLQPDDFATYYCQHGYIRGDLDNVFGGGTKVEIK
0.461 µg/mL and 3.07 nM	5.83 nM	0.000731 s⁻¹	125000 M⁻¹ s⁻¹	no binding	no binding	no binding	no binding	no binding	no binding	no binding	no binding	no binding	no binding	h193 antibody No. 23 (h193-H4 / h193-K1) (antibody, V domains shown) VH: EVQLVESGGGLVQPGGSLRLSCAASGFSLSSSYWISWVRQAPGKGLEWVSSIDSGSVGITYYATWAKGRFTISRDNSKNTLYLQMNSLRAEDTAVYYCARHGDNWALDLWGQGTLVTVSS VL: DIQMTQSPSTLSASVGDRVTITCQASQSINSWLAWYQQKPGKAPKLLIYKASTLASGVPSRFSGSGSGTEFTLTISSLQPDDFATYYCQHGYIRGDLDNVFGGGTKVEIK
0.467 µg/mL and 3.11 nM	4.41 nM	0.000595 s⁻¹	135000 M⁻¹ s⁻¹	no binding	no binding	no binding	no binding	no binding	no binding	no binding	no binding	no binding	no binding	h193 antibody No. 24 (h193-H4 / h193-K2) (antibody, V domains shown) VH: EVQLVESGGGLVQPGGSLRLSCAASGFSLSSSYWISWVRQAPGKGLEWVSSIDSGSVGITYYATWAKGRFTISRDNSKNTLYLQMNSLRAEDTAVYYCARHGDNWALDLWGQGTLVTVSS VL: DLVMTQSPSTLSASVGDRVTITCQASQSINSWLAWYQQKPGKPPKLLIYKASTLASGVSSRFSGSGSGTEFTLTISSLQPDDVATYYCQHGYIRGDLDNVFGGGTKVEIK
0.32 µg/mL and 2.13 nM	2.33 nM	0.000345 s⁻¹	148000 M⁻¹ s⁻¹	no binding	no binding	no binding	no binding	no binding	no binding	no binding	no binding	no binding	no binding	h193 antibody No. 33 (h193-H6 / h193-K3) (antibody, V domains shown) VH: EVQLVESGGGLVQPGGSLRLSCAASGFSLSSSYWISWVRQAPGKGLEWIGSIDSGSVGITYYATSAKGRFTISRDNSKNTLYLQMNSLRAEDTAVYYCARHGDNWALDLWGQGTLVTVSS VL: DIQMTQSPSTLSASVGDRVTITCRASQSINSWLAWYQQKPGKAPKLLIYKASTLASGVPSRFSGSGSGTEFTLTISSLQPDDFATYYCQHGYIRGDLDNVFGGGTKVEIK
0.272 µg/mL and 1.81 nM	1.67 nM	0.00025 s⁻¹	150000 M⁻¹ s⁻¹	no binding	no binding	no binding	no binding	no binding	no binding	no binding	no binding	no binding	no binding	h193 antibody No. 20 (h193-H3 / h193-K2) (antibody, V domains shown) VH: EVQLVESGGGLVQPGGSLRLSCAASGFSLSSSYWISWVRQAPGKGLEWIGSIDSGSVGITYYATWAKGRFTISRDNSKNTLYLQMNSLRAEDTAVYYCARHGDNWALDLWGQGTLVTVSS VL: DLVMTQSPSTLSASVGDRVTITCQASQSINSWLAWYQQKPGKPPKLLIYKASTLASGVSSRFSGSGSGTEFTLTISSLQPDDVATYYCQHGYIRGDLDNVFGGGTKVEIK
0.262 µg/mL and 1.74 nM	2.38 nM	0.000362 s⁻¹	152000 M⁻¹ s⁻¹	no binding	no binding	no binding	no binding	no binding	no binding	no binding	no binding	no binding	no binding	h193 antibody No. 32 (h193-H6 / h193-K2) (antibody, V domains shown) VH: EVQLVESGGGLVQPGGSLRLSCAASGFSLSSSYWISWVRQAPGKGLEWIGSIDSGSVGITYYATSAKGRFTISRDNSKNTLYLQMNSLRAEDTAVYYCARHGDNWALDLWGQGTLVTVSS VL: DLVMTQSPSTLSASVGDRVTITCQASQSINSWLAWYQQKPGKPPKLLIYKASTLASGVSSRFSGSGSGTEFTLTISSLQPDDVATYYCQHGYIRGDLDNVFGGGTKVEIK
> 6 nM	–	–	–	no binding	no binding	no binding	no binding	no binding	no binding	no binding	no binding	no binding	no binding	h193 antibody No. 27 (h193-H5 / h193-K1) (antibody, V domains shown) VH: EVQLVESGGGLVQPGGSLRLSCAASGFSLSSSYWISWVRQAPGKGLEWIGVIDSGSVGITYYATWAKGRFTISRDNSKNTLYLQMNSLRAEDTAVYYCARHGDNWALDLWGQGTLVTVSS VL: DIQMTQSPSTLSASVGDRVTITCQASQSINSWLAWYQQKPGKAPKLLIYKASTLASGVPSRFSGSGSGTEFTLTISSLQPDDFATYYCQHGYIRGDLDNVFGGGTKVEIK
–	–	–	–	no binding	no binding	no binding	no binding	no binding	no binding	no binding	no binding	no binding	no binding	h193 antibody No. 28 (h193-H5 / h193-K2) (antibody, V domains shown) VH: EVQLVESGGGLVQPGGSLRLSCAASGFSLSSSYWISWVRQAPGKGLEWIGVIDSGSVGITYYATWAKGRFTISRDNSKNTLYLQMNSLRAEDTAVYYCARHGDNWALDLWGQGTLVTVSS VL: DLVMTQSPSTLSASVGDRVTITCQASQSINSWLAWYQQKPGKPPKLLIYKASTLASGVSSRFSGSGSGTEFTLTISSLQPDDVATYYCQHGYIRGDLDNVFGGGTKVEIK
